Assay results as given in the supplement of paper PMC5998384.

Key:
HeLa Kyoto [1] = experiment: thermal stability score vs G1/S (z-score of summed log2 fold changes over temperatures); higher = more thermally stable than in G1/S
HeLa Kyoto [2] = experiment: melting temperature (median over replicates), in situ; higher = more thermally stable
HeLa Kyoto [3] = experiment: solubility change mitosis vs G1/S (difference of NP-40 vs SDS log2 ratios) (log2 ratio difference); higher = more soluble in mitosis
HeLa Kyoto [4] = experiment: solubility in G1/S (NP-40 vs SDS abundance) (log2 ratio); higher = more soluble; details: cell cycle stage: G1/S
[5] = cell cycle stage: early G1 (4.5 h after nocodazole release)
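Throughout, for melting temperature (median over replicates), in situ: HeLa Kyoto cells synchronized by double thymidine or nocodazole block, proteins quantified by TMT10plex mass spectrometry, three independent biological replicates.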
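Throughout, for solubility change mitosis vs G1/S (difference of NP-40 vs SDS log2 ratios): synchronized HeLa Kyoto cells (double thymidine block for G1/S, nocodazole release for mitosis), protein amounts in NP-40 versus SDS lysates quantified by mass spectrometry, three biological replicates.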
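Throughout, for solubility in G1/S (NP-40 vs SDS abundance): HeLa Kyoto cells arrested at G1/S by double thymidine block, proteins quantified by TMT10plex mass spectrometry in mild NP-40 versus SDS extracts, three biological replicates.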
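Throughout, for thermal stability score vs G1/S (z-score of summed log2 fold changes over temperatures): synchronized HeLa Kyoto cells, proteins quantified by TMT10plex mass spectrometry, three biological replicates, mitosis taken 0.5 h after nocodazole release, G1/S directly after double thymidine block.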

| Substance | thermal stability score (HeLa Kyoto [1]; [5]) | thermal stability score (HeLa Kyoto [1]; cell cycle stage: mitosis) | melting temperature (HeLa Kyoto [2]; cell cycle stage: G1/S) | melting temperature (HeLa Kyoto [2]; cell cycle stage: mitosis) | solubility change mitosis (log2) (HeLa Kyoto [3]) | solubility in G1/S (log2) (HeLa Kyoto [4]) |
| --- | --- | --- | --- | --- | --- | --- |
| MPAERKKPASMEEKDSLPNNKEKDCSERRTVSSKERPKDDIKLTAKKEVSKAPEDKKKRLEDDKRKKEDKERKKKDEEKVKAEEESKKKEEEEKKKHQEEERKKQEEQAKRQQEEEAAAQMKEKEESIQLHQEAWERHHLRKELRSKNQNAPDSRPEENFFSRLDSSLKKNTAFVKKLKTITEQQRDSLSHDFNGLNLSKYIAEAVASIVEAKLKISDVNCAVHLCSLFHQRYADFAPSLLQVWKKHFEARKEEKTPNITKLRTDLRFIAELTIVGIFTDKEGLSLIYEQLKNIINADRESHTHVSVVISFCRHCGDDIAGLVPRKVKSAAEKFNLSFPPSEIISPEKQQPFQNLLKEYFTSLTKHLKRDHRELQNTERQNRRILHSKGELSEDRHKQYEEFAMSYQKLLANSQSLADLLDENMPDLPQDKPTPEEHGPGIDIFTPGKPGEYDLEGGIWEDEDARNFYENLIDLKAFVPAILFKDNEKSCQNKESNKDDTKEAKESKENKEVSSPDDLELELENLEINDDTLELEGGDEAEDLTKKLLDEQEQEDEEASTGSHLKLIVDAFLQQLPNCVNRDLIDKAAMDFCMNMNTKANRKKLVRALFIVPRQRLDLLPFYARLVATLHPCMSDVAEDLCSMLRGDFRFHVRKKDQINIETKNKTVRFIGELTKFKMFTKNDTLHCLKMLLSDFSHHHIEMACTLLETCGRFLFRSPESHLRTSVLLEQMMRKKQAMHLDARYVTMVENAYYYCNPPPAEKTVKKKRPPLQEYVRKLLYKDLSKVTTEKVLRQMRKLPWQDQEVKDYVICCMINIWNVKYNSIHCVANLLAGLVLYQEDVGIHVVDGVLEDIRLGMEVNQPKFNQRRISSAKFLGELYNYRMVESAVIFRTLYSFTSFGVNPDGSPSSLDPPEHLFRIRLVCTILDTCGQYFDRGSSKRKLDCFLVYFQRYVWWKKSLEVWTKDHPFPIDIDYMISDTLELLRPKIKLCNSLEESIRQVQDLEREFLIKLGLVNDKDSKDSMTEGENLEEDEEEEEGGAETEEQSGNESEVNEPEEEEGSDNDDDEGEEEEEENTDYLTDSNKENETDEENTEVMIKGGGLKHVPCVEDEDFIQALDKMMLENLQQRSGESVKVHQLDVAIPLHLKSQLRKGPPLGGGEGEAESADTMPFVMLTRKGNKQQFKILNVPMSSQLAANHWNQQQAEQEERMRMKKLTLDINERQEQEDYQEMLQSLAQRPAPANTNRERRPRYQHPKGAPNADLIFKTGGRRR [UPF2] | -0.603 | -0.161 | 49.6 °C | 49.7 °C | -0.109 | -0.245 |
| MAAAVPQRAWTVEQLRSEQLPKKDIIKFLQEHGSDSFLAEHKLLGNIKNVAKTANKDHLVTAYNHLFETKRFKGTESISKVSEQVKNVKLNEDKPKETKSEETLDEGPPKYTKSVLKKGDKTNFPKKGDVVHCWYTGTLQDGTVFDTNIQTSAKKKKNAKPLSFKVGVGKVIRGWDEALLTMSKGEKARLEIEPEWAYGKKGQPDAKIPPNAKLTFEVELVDID [FKBP3] | 0.0401 | -2.71 | 54.2 °C | 54.4 °C | 0.226 | 0.57 |
| MASSSPDSPCSCDCFVSVPPASAIPAVIFAKNSDRPRDEVQEVVFVPAGTHTPGSRLQCTYIEVEQVSKTHAVILSRPSWLWGAEMGANEHGVCIGNEAVWTKEPVGEGEALLGMDLLRLALERSSSAQEALHVITGLLEHYGQGGNCLEDAAPFSYHSTFLLADRTEAWVLETAGRLWAAQRIQEGARNISNQLSIGTDISAQHPELRTHAQAKGWWDGQGAFDFAQIFSLTQQPVRMEAAKARFQAGRELLRQRQGGITAEVMMGILRDKESGICMDSGGFRTTASMVSVLPQDPTQPCVHFLTATPDPSRSVFKPFIFGMGVAQAPQVLSPTFGAQDPVRTLPRFQTQVDRRHTLYRGHQAALGLMERDQDRGQQLQQKQQDLEQEGLEATQGLLAGEWAPPLWELGSLFQAFVKRESQAYA [SCRN2] | 0.593 | 0.947 | 51 °C | 51.1 °C | -0.201 | 0.282 |
| MKQDASRNAAYTVDCEDYVHVVEFNPFENGDSGNLIAYGGNNYVVIGTCTFQEEEADVEGIQYKTLRTFHHGVRVDGIAWSPETRLDSLPPVIKFCTSAADMKIRLFTSDLQDKNEYKVLEGHTDFINGLVFDPKEGQEIASVSDDHTCRIWNLEGVQTAHFVLHSPGMSVCWHPEETFKLMVAEKNGTIRFYDLLAQQAILSLESEQVPLMSAHWCLKNTFKVGAVAGNDWLIWDITRSSYPQNKRPVHMDRACLFRWSTISENLFATTGYPGKMASQFQIHHLGHPQPILMGSVAVGSGLSWHRTLPLCVIGGDHKLLFWVTEV [NUP37] | -3.41 | -4.8 | 53.3 °C | 51 °C | 0.135 | -0.294 |
| VPS13C | -0.0535 | -0.882 | 52.7 °C | 53.1 °C | -0.127 | -0.229 |
| MEDPQSKEPAGEAVALALLESPRPEGGEEPPRPSPEETQQCKFDGQETKGSKFITSSASDFSDPVYKEIAITNGCINRMSKEELRAKLSEFKLETRGVKDVLKKRLKNYYKKQKLMLKESNFADSYYDYICIIDFEATCEEGNPPEFVHEIIEFPVVLLNTHTLEIEDTFQQYVRPEINTQLSDFCISLTGITQDQVDRADTFPQVLKKVIDWMKLKELGTKYKYSLLTDGSWDMSKFLNIQCQLSRLKYPPFAKKWINIRKSYGNFYKVPRSQTKLTIMLEKLGMDYDGRPHCGLDDSKNIARIAVRMLQDGCELRINEKMHAGQLMSVSSSLPIEGTPPPQMPHFRK [ERI1] | -0.616 | 0.0498 | 51 °C | 49.9 °C | -0.00712 | -0.0987 |
| MEDHQHVPIDIQTSKLLDWLVDRRHCSLKWQSLVLTIREKINAAIQDMPESEEIAQLLSGSYIHYFHCLRILDLLKGTEASTKNIFGRYSSQRMKDWQEIIALYEKDNTYLVELSSLLVRNVNYEIPSLKKQIAKCQQLQQEYSRKEEECQAGAAEMREQFYHSCKQYGITGENVRGELLALVKDLPSQLAEIGAAAQQSLGEAIDVYQASVGFVCESPTEQVLPMLRFVQKRGNSTVYEWRTGTEPSVVERPHLEELPEQVAEDAIDWGDFGVEAVSEGTDSGISAEAAGIDWGIFPESDSKDPGGDGIDWGDDAVALQITVLEAGTQAPEGVARGPDALTLLEYTETRNQFLDELMELEIFLAQRAVELSEEADVLSVSQFQLAPAILQGQTKEKMVTMVSVLEDLIGKLTSLQLQHLFMILASPRYVDRVTEFLQQKLKQSQLLALKKELMVQKQQEALEEQAALEPKLDLLLEKTKELQKLIEADISKRYSGRPVNLMGTSL [CDK5RAP3] | 1.2 | 2.62 | 49.5 °C | 49.4 °C | -0.0399 | 0.203 |
| MPGHLQEGFGCVVTNRFDQLFDDESDPFEVLKAAENKKKEAGGGGVGGPGAKSAAQAAAQTNSNAAGKQLRKESQKDRKNPLPPSVGVVDKKEETQPPVALKKEGIRRVGRRPDQQLQGEGKIIDRRPERRPPRERRFEKPLEEKGEGGEFSVDRPIIDRPIRGRGGLGRGRGGRGRGMGRGDGFDSRGKREFDRHSGSDRSSFSHYSGLKHEDKRGGSGSHNWGTVKDELTESPKYIQKQISYNYSDLDQSNVTEETPEGEEHHPVADTENKENEVEEVKEEGPKEMTLDEWKAIQNKDRAKVEFNIRKPNEGADGQWKKGFVLHKSKSEEAHAEDSVMDHHFRKPANDITSQLEINFGDLGRPGRGGRGGRGGRGRGGRPNRGSRTDKSSASAPDVDDPEAFPALA [SERBP1] | -1.78 | -8.72 | 58.8 °C |  | 0.395 | -0.123 |
| MDNLSDTLKKLKITAVDKTEDSLEGCLDCLLQALAQNNTETSEKIQASGILQLFASLLTPQSSCKAKVANIIAEVAKNEFMRIPCVDAGLISPLVQLLNSKDQEVLLQTGRALGNICYDSHEGRSAVDQAGGAQIVIDHLRSLCSITDPANEKLLTVFCGMLMNYSNENDSLQAQLINMGVIPTLVKLLGIHCQNAALTEMCLVAFGNLAELESSKEQFASTNIAEELVKLFKKQIEHDKREMIFEVLAPLAENDAIKLQLVEAGLVECLLEIVQQKVDSDKEDDITELKTGSDLMVLLLLGDESMQKLFEGGKGSVFQRVLSWIPSNNHQLQLAGALAIANFARNDANCIHMVDNGIVEKLMDLLDRHVEDGNVTVQHAALSALRNLAIPVINKAKMLSAGVTEAVLKFLKSEMPPVQFKLLGTLRMLIDAQAEAAEQLGKNVKLVERLVEWCEAKDHAGVMGESNRLLSALIRHSKSKDVIKTIVQSGGIKHLVTMATSEHVIMQNEALVALALIAALELGTAEKDLESAKLVQILHRLLADERSAPEIKYNSMVLICALMGSECLHKEVQDLAFLDVVSKLRSHENKSVAQQASLTEQRLTVES [RAP1GDS1] | 1.29 | 1.87 | 50.2 °C | 49.8 °C | -0.0374 | 0.111 |
| MPVAVGPYGQSQPSCFDRVKMGFVMGCAVGMAAGALFGTFSCLRIGMRGRELMGGIGKTMMQSGGTFGTFMAIGMGIRC [ROMO1] | -0.746 | -1.2 | 54.5 °C | 54.9 °C | 0.0021 | -0.104 |
